# Values quoted from earlier work, collected in article PMC7017177.
# Biological target: CTLA-4 (Homo sapiens) (UniProt P16410)
# Chain of UniProt P16410 (P16410 36-161): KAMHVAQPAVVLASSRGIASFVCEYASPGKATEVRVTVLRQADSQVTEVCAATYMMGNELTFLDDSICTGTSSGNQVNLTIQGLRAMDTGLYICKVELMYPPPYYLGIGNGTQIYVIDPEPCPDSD
substance,measurement,value
Tremelimumab,Kd,280 pM
